Measured values from the nanobody polyreactivity screen of Harvey et al. (2022).

Test: yeast display, Sf9 membrane polyspecificity reagent, FACS + sequencing; frameworks hold sequencing errors
In short: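 Galactose induction of a Saccharomyces cerevisiae BJ5465 synthetic nanobody display library ran 36–48 hours. The cells were then stained for 1 hour at 4 °C with 10% biotinylated, detergent-solubilized Sf9 membrane reagent, pulled down on streptavidin microbeads and FACS-sorted into low and high (top ~1%) gates on expression and reagent-binding fluorescence. Labels for polyreactivity follow the gate of origin.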
With “QVQLVESGGGLVQAGGSLRLSCAASGIIFGTNAMGWYRQAPGKERELVAAIRVTGGSTYYADSVKGRFTISRDNAKNTVYLQMNSLKPEDTAVYYCARDSWFVVDMDYWGQGTQVTVSS” the “polyreactivity (PSR sort gate)” value was “low polyreactivity”.
In the case of “QVQLVESGGGLVQAGGSLRLSCAASGFTFRYNAMGWYRQAPGKERELVAAITNGGSTYADSVKGRFTISRDNAKNTVYLQMNSLKPEDTAVYYCAADYFVLTYYLWSYSPYKSFYYWGQGTQVTLSS”, the “polyreactivity (PSR sort gate)” value is reported as “low polyreactivity”.
For “QVQLVESGGGLVQAGGSLRLSCAASGFTFFYYVMGWYRQAPGKERELVAAISQHGGSTYYADSVKGRFTISRDNAKNTVYLQMNSLKPEDTAVYYCAASPVVNRRGTYGYWGQGTQVTVSS”, the “polyreactivity (PSR sort gate)” value was “high polyreactivity”.
For “QDQLVESGGGLVQAGGSLRISCAASGRIFRRNTMGRYRQAPGKERELVADINSSDGDTYYADSVKGRFTISRDNAKNTVYLQMNSLKPEDTAVYYCAADLSPLGEMDYWGQGTQVTVSS”, the “polyreactivity (PSR sort gate)” value was “low polyreactivity”.
In the case of “QVQLVESGGGLVQAGGSLRLSCAASGRTFARYAMGWYRQAPGKERELVAAISSSGGSTYYADSVKGRFTISRDNAKNTVYLQMNSLKQEDTAVYYCVTYRNWWYDYWGQGTQVTVSS”, the “polyreactivity (PSR sort gate)” value is reported as “high polyreactivity”.
For “QVQLVESGGGLDQAGGSLRLSCAASGRTFGGYAMGWYRQAPGKERELVARISRSGGSTYYADSVKGRFTISRDNAKNTVYFQMNSLKPEDTAVYYCNTGLRTAYGWPQDDYWGQGTQVTVSS”, the “polyreactivity (PSR sort gate)” value was “low polyreactivity”.
For “QVQLVESGGGLVQAGGSLRLSCAASGSIFGKNAMGWYRQAPGKEREFVAAITNTGGDTYYADSVKGRFTISRDNAKNNVYLQMNSLKPEDTAVYYCNARKRKTSLYKFNYWGQGTQVTVSS”, the “polyreactivity (PSR sort gate)” value was “high polyreactivity”.
With “QVQLVESGGGLVQAGGSLRLSCADSGRIFLTNAMGWYRQAPGKERELGATITSGGSTNYADSVKGRFTISRDNAKNTVYLQMNSLKPVDTAVYDCAADWEFGFDYWGQGTQVTVSS” the “polyreactivity (PSR sort gate)” value was “low polyreactivity”.
In the case of “QVQLVESGGGLVQAGGSLRLSCPASGRIIGGNAMGWYRQAPGKEREFVAAIRASGGSTHYADSVKGRFTISRDNAKNTVYLQMNSLKPEDTAVYDCNALSRNTHLYDYWGQGTQVTVSS”, the “polyreactivity (PSR sort gate)” value is reported as “high polyreactivity”.
For “QVQLVESGGGLVQAGGSLRLSCAASGSTFNSYAMGWYRQAPGKERELVAAITSSVGSTYYADSVKGRFTISRDNAKNTVYLQMNSLKPEDTAVYYCAADYFSYWYFSGYDYWGQGTQVTVSS”, the “polyreactivity (PSR sort gate)” value was “low polyreactivity”.
In the case of “QVQLVESGGGLVQAGGSLRLSCAASGSTFPDNAMGWYRQAPGKERELVATITSGASTYYADSVKGRFTISRDNAKNTVYLQMNSLKPEDTAVYYCAVDVYFYYRHYGYWGQGTQVTVSS”, the “polyreactivity (PSR sort gate)” value is reported as “low polyreactivity”.
In the case of “QVQLVESGGGLVQEGCSLRLTCAASGSIFYYYAMGWYRQAPRKERELVATITWNGAGTFYADSVKGRFTISRDNAKNTVYLQMNSLKPEDTAVYYCAASWYGESGYDYWGQGTQVTVSS”, the “polyreactivity (PSR sort gate)” value is reported as “low polyreactivity”.
With “QVQLVESGGGLVQAGGSLRLSCAASGSIFFSYAMGWYRQARGKERELVAAISTSGGNTYYADSVKGRFTISRDNAKNTVYLQMNSLKPEDTAVYYCNALYIYFYNYLTMDYWGQGTQVTVSS” the “polyreactivity (PSR sort gate)” value was “low polyreactivity”.
For “QVQLVESGGGLVQAGGSLRLSCAASGFTFSSYAMGWYRQAPGKERELVAAINWSGGSTYYADSVKGRFTISRDNAKNTVYLQMNSLKPEDTAVYYCATSVKDRYWVDYWGQGTQVTVSS”, the “polyreactivity (PSR sort gate)” value was “high polyreactivity”.
For “QVQLVESGGGLVQAGGSLRLSCAASGRTFTIYAMGWYRQAPGKERELVAAISSSSGSTYYADSVKGRFTISRDNAKNTVYLQMNSLKPEDTAVYYCAARTTYRSSKRYGYWGQGTQVTVSS”, the “polyreactivity (PSR sort gate)” value was “high polyreactivity”.
In the case of “QVQLVESGGGLVQAGVSLRLSSAASGSTFLYYAMGWYRQAPGKESEMVAAIDWSDTSTYFADSVKGRFTISRDIAKNTVYLQMNSLKTEDTAVYYCIREATYVYAAGYDYWGQGTQVTVSS”, the “polyreactivity (PSR sort gate)” value is reported as “low polyreactivity”.
With “QVQLVESGGGLVQAGGSLRLSCAASGRIFIQNTMGWYRQAPGKERELVAAITRSGGRTYYADSVKGRFTISRDNAKNTVYLQMNSLKPEDTAVYYCAAVARTVPSYSYNYWGQGTQVTVSS” the “polyreactivity (PSR sort gate)” value was “high polyreactivity”.
In the case of “QVQLVESGGGLVQAGGSLRLSCAASGRIFGDNAMGWSRQAPGKEWELVAAITVNAGSTHYAASVKGRFTISRDNAKNTVYLQMNSLKPEDTAVYYCAKQTAPVTGVGPYFYWGQGTQVTVSS”, the “polyreactivity (PSR sort gate)” value is reported as “low polyreactivity”.
With “EVQLVESGGGLVQAGGSLRLSCAASGSIFSFYAMGWYRQAPGKERELVAAISRSAGRTYYADSVKGRFTISRDNATNTVYLQRNSLKPEDTAVYYCNKASWYNGEMDYWGQGTQVTVSS” the “polyreactivity (PSR sort gate)” value was “high polyreactivity”.
For “QVQLVESGGGLVQAGGSLRLSCAASGLIVPWYDMGWYRQAPGKERELVAAINWRGGSTYYADSVKGRFTISRDNAKNTVYLQMKSLKPEDTAVYYCAACYLHRDSYIYDYWGQGTQVTVSS”, the “polyreactivity (PSR sort gate)” value was “low polyreactivity”.
With “QVQLVESGGGLVQAGGSLRLSCAASGLTFSYYAMGWYRQAPGKERELVAAISGRGSTYYADSVKGRFTISRDNAKNTVYLQMNSLKPEDTAVYYCNAYGRFGLYDYWGQGTQVTVSS” the “polyreactivity (PSR sort gate)” value was “high polyreactivity”.
For “QVQLVESGGGLVQAGGSLRLSCAASGSNFGVNAMGGYRQAPGKERELVAAITSGGGTYYTDSVKGRFTISRDNAKKTVYLQKNSLKPEATAVYYCMARVRGKQLVGRYDYWGQGTQVTVSS”, the “polyreactivity (PSR sort gate)” value was “high polyreactivity”.
In the case of “QVQLVESGGGLVQAGGSLRLSCAASGITFYDYAMGWYRPAPGKERELVAAINSGDSTNYADSVKGRFTISRDNAKNTVYLQMNSLKPEDTAVYYCAADRYYYSWYTIWYRERIYYWGQGTQVTVSS”, the “polyreactivity (PSR sort gate)” value is reported as “low polyreactivity”.
For “QVQLVESGGGLVQAGGSLRLSCAASGSIFVDNAMGWYRQAPGKERELVAAINWSGGSTYYADSVKGRFTISRDNAKNTVYLQMNSLKQEDTAVYYCNAARPVQTWDEQSWYDYWGQGTQVTVSS”, the “polyreactivity (PSR sort gate)” value was “low polyreactivity”.
For “QVQLVESVGGLVQAGGSLRLSCAASGFIYGWNAMGWYRQAPVKERELVASIRSSGGTTYADSVKGRFTISRDNAKNTVYLQMNSLKAEDNAVYYCARRVLGLLELDYWGQGTQVTVSS”, the “polyreactivity (PSR sort gate)” value was “low polyreactivity”.
For “QVQLVESGGGLVQAGGSLRLSCAASGSIFTPYAMGWYRQAPAKERELVAANTSSGGSTNYPDSVKGRFTISRDKAKSTVYLQMNSLKPEDTAVYYCAADQDLGYPLFDYWGQRTQVTVSS”, the “polyreactivity (PSR sort gate)” value was “low polyreactivity”.
In the case of “QVQLVESGGGLVQAGGSLRLSCAASGIIFYYNTMGWYRQAPGKERELVAAISQRGGSTYYADSVKGRFTISRDNAKNTVYLQMNSLKPEDTAVYYCNKLRNSHGFRYDYWGQGTQVTVSS”, the “polyreactivity (PSR sort gate)” value is reported as “high polyreactivity”.
With “QVQLVESGGCLVKAGGSLRLSCAASGRIFLTNAIGWYRQAPGKESELVADISRAGSTYADSVKGRFTISRDNAKNTVYLQMNSLKPEDTAVYYCSADEYSPGDSRTRYDYWGQGTQVTVSS” the “polyreactivity (PSR sort gate)” value was “low polyreactivity”.
In the case of “QVQLVESGGGLVQAGGSLRLSCAASGFTFGVNAMGWYRQAPGKERELVAAISRSGGSTYYADSVKGRFTISRDNAKNTVYLEMNSLKPEDTAVYYCNKAYHRRDSEFGYWGQGTQVTVSS”, the “polyreactivity (PSR sort gate)” value is reported as “high polyreactivity”.
With “QVQLVESGGGLVQAGGSLRLSCAASGSTFSDYTMGWFRQAPGKERELVAAITTIGGSTYYADSVKGRFTISRDNAKNTVYLQMNSLKPEDTAVYYCAASYYYPLEYYYWGQGTQVTVSS” the “polyreactivity (PSR sort gate)” value was “low polyreactivity”.
